The source of these data is publication PMC4956616.

Experiment [1] concerns the target NT-495-labeled Arl1^GTP, P40616. The experiment is described as follows: fluorescence anisotropy. The settings on record: chain shown with the change;; parent: 26 ± 5. (In fluorescence polarisation assays a small probe gives low polarisation when free and higher when bound to something large.)
For experiment [2], the target named is NT-495-labeled Arl1^GTP (human) (UniProt P40616). Briefly: fluorescence polarisation; fluorescence anisotropy, NT-495-labeled Arl1 titrated with DCB variants, 20°C, 50 mM Tris-HCl pH 8.0, 110 mM KCl, 1 mM DTT, 5 mM MgCl2, 0.001% Triton X-100, 0.1% Tween-20, 5 μM GTP; single-site (1:1) model.

Some results are limits rather than exact numbers.

Sequence of NT-495-labeled Arl1^GTP, P40616 (P40616 15-181 Q71L): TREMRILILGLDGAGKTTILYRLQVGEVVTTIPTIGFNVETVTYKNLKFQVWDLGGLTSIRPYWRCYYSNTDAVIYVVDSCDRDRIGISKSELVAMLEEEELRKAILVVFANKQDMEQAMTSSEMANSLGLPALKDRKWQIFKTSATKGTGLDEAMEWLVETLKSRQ

B1: His6-DCB^BIG1 (human BIG1 residues 1–228), Q9Y6D6 L156D (protein)
chain: MYEGKKTKNMFLTRALEKILADKEVKKAHHSQLRKACEVALEEIKAETEKQSPPHGEAKAGSSTLPPVKSKTNFIEADKYFLPFELACQSKCPRIVSTSLDCLQKLIAYGHLTGNAPDSTTPGKKLIDRIIETICGCFQGPQTDEGVQLQIIKALDTAVTSQHIEIHEGTVLQAVRTCYNIYLASKNLINQTTAKATLTQMLNVIFARMENQALQEAKQMEKERHRQH
One may read the Kd as the equilibrium constant for the complex coming apart. Take B1: the dissociation constant (Kd) in experiment [1] was 86 µM.

B2: His6-DCB^BIG1 (human BIG1 residues 1–228), Q9Y6D6 K105D (protein)
chain: MYEGKKTKNMFLTRALEKILADKEVKKAHHSQLRKACEVALEEIKAETEKQSPPHGEAKAGSSTLPPVKSKTNFIEADKYFLPFELACQSKCPRIVSTSLDCLQDLIAYGHLTGNAPDSTTPGKKLIDRIIETICGCFQGPQTDEGVQLQIIKALLTAVTSQHIEIHEGTVLQAVRTCYNIYLASKNLINQTTAKATLTQMLNVIFARMENQALQEAKQMEKERHRQH
Consider B2, for which the Kd in experiment [1] amounted to 110 µM.

B3: His6-DCB^BIG1 (human BIG1 residues 1–228) (domain or fragment)
chain: MYEGKKTKNMFLTRALEKILADKEVKKAHHSQLRKACEVALEEIKAETEKQSPPHGEAKAGSSTLPPVKSKTNFIEADKYFLPFELACQSKCPRIVSTSLDCLQKLIAYGHLTGNAPDSTTPGKKLIDRIIETICGCFQGPQTDEGVQLQIIKALLTAVTSQHIEIHEGTVLQAVRTCYNIYLASKNLINQTTAKATLTQMLNVIFARMENQALQEAKQMEKERHRQH
The molecule B3 returned a Kd in experiment [2] of 26 µM.

B4: His6-DCB^BIG1 Gln200Glu (domain or fragment)
chain: MYEGKKTKNMFLTRALEKILADKEVKKAHHSQLRKACEVALEEIKAETEKQSPPHGEAKAGSSTLPPVKSKTNFIEADKYFLPFELACQSKCPRIVSTSLDCLQKLIAYGHLTGNAPDSTTPGKKLIDRIIETICGCFQGPQTDEGVQLQIIKALLTAVTSQHIEIHEGTVLQAVRTCYNIYLASKNLINQTTAKATLTEMLNVIFARMENQALQEAKQMEKERHRQH
In experiment [2], B4 had a fold increase of Kd against wild type of over 5 fold.

B5: His6-DCB^BIG1 (human BIG1 residues 1–228), Q9Y6D6 Q200E (protein)
chain: MYEGKKTKNMFLTRALEKILADKEVKKAHHSQLRKACEVALEEIKAETEKQSPPHGEAKAGSSTLPPVKSKTNFIEADKYFLPFELACQSKCPRIVSTSLDCLQKLIAYGHLTGNAPDSTTPGKKLIDRIIETICGCFQGPQTDEGVQLQIIKALLTAVTSQHIEIHEGTVLQAVRTCYNIYLASKNLINQTTAKATLTEMLNVIFARMENQALQEAKQMEKERHRQH
Take B5: in experiment [1], the Kd stood at 140 µM.

B6: His6-DCB^BIG1 Lys105Asp (domain or fragment)
chain: MYEGKKTKNMFLTRALEKILADKEVKKAHHSQLRKACEVALEEIKAETEKQSPPHGEAKAGSSTLPPVKSKTNFIEADKYFLPFELACQSKCPRIVSTSLDCLQDLIAYGHLTGNAPDSTTPGKKLIDRIIETICGCFQGPQTDEGVQLQIIKALLTAVTSQHIEIHEGTVLQAVRTCYNIYLASKNLINQTTAKATLTQMLNVIFARMENQALQEAKQMEKERHRQH
In experiment [2], B6 yielded a fold increase of Kd against wild type of over 5 fold.
